Measurements as given in article PMC4995099, “Drosophila Nanos acts as a molecular clamp that modulates the RNA-binding and repression activities of Pumilio”.

Experiments:
[1] = biological target: T1, Pum RNA-binding domain (aa1091-1426) with N-terminal triple FLAG tag, EMSA construct (Drosophila melanogaster, UniProt P25822-1 1091-1426); experiment: EMSA, Nos binding to Pum–hb NRE2 RNA complex (100 nM Pum)
T1 chain: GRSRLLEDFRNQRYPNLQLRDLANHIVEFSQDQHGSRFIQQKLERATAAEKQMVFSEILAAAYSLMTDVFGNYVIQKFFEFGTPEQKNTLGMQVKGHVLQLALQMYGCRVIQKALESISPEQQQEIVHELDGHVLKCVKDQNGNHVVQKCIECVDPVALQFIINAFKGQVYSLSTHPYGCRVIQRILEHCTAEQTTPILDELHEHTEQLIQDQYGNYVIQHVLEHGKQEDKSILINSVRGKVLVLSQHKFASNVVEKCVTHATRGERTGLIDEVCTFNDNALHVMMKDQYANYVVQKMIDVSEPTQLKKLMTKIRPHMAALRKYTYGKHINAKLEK

[2] = biological target: T2, Pum PUM-HD WT (EMSA);Nos ZC WT (EMSA) (Drosophila melanogaster?;Drosophila …, UniProt P25822;P25724 1091-1426;289-401, |); experiment: EMSA; Pum titrated, 400 nM Nos ZC constant; EMSA: 50 mM Tris-HCl pH 7.6, 150 mM NaCl, 2 mM DTT, 2 ug/mL BSA, 0.01% Igepal CA-630, 0.02% bromophenol blue, 20% glycerol, 3 h at 4 C; 1 nM Cy5 RNA or 0.3 nM 32P RNA; details: protein: recombinant;recombinant, tags: N-terminal 3xFLAG, Halo-tag removed by TEV;C-terminal V5, copies: 1;1, label: 5' 32P (EMSA), none (crystal)
T2 sequence 1: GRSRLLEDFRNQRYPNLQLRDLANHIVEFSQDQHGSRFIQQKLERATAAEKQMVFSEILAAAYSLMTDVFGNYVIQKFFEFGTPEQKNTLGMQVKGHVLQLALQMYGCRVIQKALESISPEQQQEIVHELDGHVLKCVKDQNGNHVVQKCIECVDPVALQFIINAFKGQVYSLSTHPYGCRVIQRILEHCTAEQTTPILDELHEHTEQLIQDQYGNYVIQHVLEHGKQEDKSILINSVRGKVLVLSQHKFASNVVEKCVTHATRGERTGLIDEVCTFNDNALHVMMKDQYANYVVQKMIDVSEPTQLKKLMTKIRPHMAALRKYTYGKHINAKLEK
T2 sequence 2: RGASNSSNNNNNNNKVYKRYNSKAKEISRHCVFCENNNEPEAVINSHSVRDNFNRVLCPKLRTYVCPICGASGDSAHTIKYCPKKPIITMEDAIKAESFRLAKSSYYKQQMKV

Pum PUM-HD WT (EMSA) [3] = biological target: T3, Pum PUM-HD WT (EMSA) (UniProt P25822 1091-1426); experiment: EMSA; Pum alone; Kd printed only in figure; EMSA: 50 mM Tris-HCl pH 7.6, 150 mM NaCl, 2 mM DTT, 2 ug/mL BSA, 0.01% Igepal CA-630, 0.02% bromophenol blue, 20% glycerol, 3 h at 4 C; 1 nM Cy5 RNA or 0.3 nM 32P RNA; details: protein: recombinant; tags: N-terminal 3xFLAG; Halo-tag removed by TEV; label: 5' 32P (EMSA); none (crystal)
T3 sequence: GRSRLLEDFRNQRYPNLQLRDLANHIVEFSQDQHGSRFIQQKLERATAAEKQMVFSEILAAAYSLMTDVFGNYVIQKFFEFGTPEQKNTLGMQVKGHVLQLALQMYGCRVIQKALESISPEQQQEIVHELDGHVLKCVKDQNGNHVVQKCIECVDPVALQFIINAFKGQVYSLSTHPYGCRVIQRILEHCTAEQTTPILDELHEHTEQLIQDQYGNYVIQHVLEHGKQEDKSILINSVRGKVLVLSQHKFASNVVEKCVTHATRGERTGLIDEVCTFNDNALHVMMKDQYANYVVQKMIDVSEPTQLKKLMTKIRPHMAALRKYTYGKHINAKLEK

Pum PUM-HD WT (EMSA) [4] = biological target: T3, Pum PUM-HD WT (EMSA); experiment: EMSA; no stable complex, Pum up to 1 uM; EMSA: 50 mM Tris-HCl pH 7.6, 150 mM NaCl, 2 mM DTT, 2 ug/mL BSA, 0.01% Igepal CA-630, 0.02% bromophenol blue, 20% glycerol, 3 h at 4 C; 1 nM Cy5 RNA or 0.3 nM 32P RNA; details: protein: recombinant; tags: N-terminal 3xFLAG; Halo-tag removed by TEV; label: 5' 32P
[5] = biological target: T2, Pum PUM-HD WT (EMSA);Nos ZC WT (EMSA); experiment: EMSA; Pum titrated, 1 uM Nos ZC constant; EMSA: 50 mM Tris-HCl pH 7.6, 150 mM NaCl, 2 mM DTT, 2 ug/mL BSA, 0.01% Igepal CA-630, 0.02% bromophenol blue, 20% glycerol, 3 h at 4 C; 1 nM Cy5 RNA or 0.3 nM 32P RNA; details: protein: recombinant;recombinant, tags: N-terminal 3xFLAG, Halo-tag removed by TEV;C-terminal V5, copies: 1;1, label: 5' 32P
Pum PUM-HD WT (EMSA) [6] = biological target: T3, Pum PUM-HD WT (EMSA); experiment: EMSA; no stable binding; EMSA: 50 mM Tris-HCl pH 7.6, 150 mM NaCl, 2 mM DTT, 2 ug/mL BSA, 0.01% Igepal CA-630, 0.02% bromophenol blue, 20% glycerol, 3 h at 4 C; 1 nM Cy5 RNA or 0.3 nM 32P RNA; details: protein: recombinant; tags: N-terminal 3xFLAG; Halo-tag removed by TEV; label: 5' 32P
Pum PUM-HD WT (EMSA) [7] = biological target: T3, Pum PUM-HD WT (EMSA); experiment: EMSA; no stable binary complex; EMSA: 50 mM Tris-HCl pH 7.6, 150 mM NaCl, 2 mM DTT, 2 ug/mL BSA, 0.01% Igepal CA-630, 0.02% bromophenol blue, 20% glycerol, 3 h at 4 C; 1 nM Cy5 RNA or 0.3 nM 32P RNA; details: protein: recombinant; tags: N-terminal 3xFLAG; Halo-tag removed by TEV; label: 5' 32P
[8] = biological target: T2, Pum PUM-HD WT (EMSA);Nos ZC WT (EMSA); experiment: EMSA; 1 uM Nos ZC; Kd only in figure; EMSA: 50 mM Tris-HCl pH 7.6, 150 mM NaCl, 2 mM DTT, 2 ug/mL BSA, 0.01% Igepal CA-630, 0.02% bromophenol blue, 20% glycerol, 3 h at 4 C; 1 nM Cy5 RNA or 0.3 nM 32P RNA; details: protein: recombinant;recombinant, tags: N-terminal 3xFLAG, Halo-tag removed by TEV;C-terminal V5, copies: 1;1, label: 5' 32P
Pum PUM-HD WT (EMSA) [9] = biological target: T3, Pum PUM-HD WT (EMSA); experiment: EMSA; N/D; EMSA: 50 mM Tris-HCl pH 7.6, 150 mM NaCl, 2 mM DTT, 2 ug/mL BSA, 0.01% Igepal CA-630, 0.02% bromophenol blue, 20% glycerol, 3 h at 4 C; 1 nM Cy5 RNA or 0.3 nM 32P RNA; details: protein: recombinant; tags: N-terminal 3xFLAG; Halo-tag removed by TEV; label: 5' 32P
[10] = biological target: T2, Pum PUM-HD WT (EMSA);Nos ZC WT (EMSA); experiment: EMSA; 1 uM Nos ZC; N/D; EMSA: 50 mM Tris-HCl pH 7.6, 150 mM NaCl, 2 mM DTT, 2 ug/mL BSA, 0.01% Igepal CA-630, 0.02% bromophenol blue, 20% glycerol, 3 h at 4 C; 1 nM Cy5 RNA or 0.3 nM 32P RNA; details: protein: recombinant;recombinant, tags: N-terminal 3xFLAG, Halo-tag removed by TEV;C-terminal V5, copies: 1;1, label: 5' 32P
[11] = biological target: T4, Pum RNA-binding domain (crystal);Nos ZF domain (crystal) (Drosophila melanogaster?;Drosophila …, UniProt P25822;P25724 1091-1426;289-401, |); experiment: X-ray crystallography; 4.0 A; Zn2+; EMSA: 50 mM Tris-HCl pH 7.6, 150 mM NaCl, 2 mM DTT, 2 ug/mL BSA, 0.01% Igepal CA-630, 0.02% bromophenol blue, 20% glycerol, 3 h at 4 C; 1 nM Cy5 RNA or 0.3 nM 32P RNA; details: protein: recombinant;recombinant; tags: His6-SUMO removed by Ulp1;His6-SUMO removed by Ulp1; copies: 1;1
T4 sequence 1: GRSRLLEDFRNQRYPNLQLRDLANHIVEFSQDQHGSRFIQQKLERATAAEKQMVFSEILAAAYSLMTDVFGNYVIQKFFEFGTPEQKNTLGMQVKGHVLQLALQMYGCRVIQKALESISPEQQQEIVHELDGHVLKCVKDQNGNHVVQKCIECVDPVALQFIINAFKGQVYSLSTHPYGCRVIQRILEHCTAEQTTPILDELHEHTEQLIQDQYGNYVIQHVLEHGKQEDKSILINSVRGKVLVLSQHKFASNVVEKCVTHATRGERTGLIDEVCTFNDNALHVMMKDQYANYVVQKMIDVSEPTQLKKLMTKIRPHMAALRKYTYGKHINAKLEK
T4 sequence 2: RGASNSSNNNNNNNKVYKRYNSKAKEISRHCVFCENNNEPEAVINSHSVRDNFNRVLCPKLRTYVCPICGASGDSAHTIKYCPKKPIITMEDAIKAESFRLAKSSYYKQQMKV

[12] = biological target: T5, Pum RNA-binding domain (crystal) (UniProt P25822 1091-1426); experiment: X-ray crystallography; 1.14 A; EMSA: 50 mM Tris-HCl pH 7.6, 150 mM NaCl, 2 mM DTT, 2 ug/mL BSA, 0.01% Igepal CA-630, 0.02% bromophenol blue, 20% glycerol, 3 h at 4 C; 1 nM Cy5 RNA or 0.3 nM 32P RNA; details: protein: recombinant; tags: His6-SUMO removed by Ulp1
T5 sequence: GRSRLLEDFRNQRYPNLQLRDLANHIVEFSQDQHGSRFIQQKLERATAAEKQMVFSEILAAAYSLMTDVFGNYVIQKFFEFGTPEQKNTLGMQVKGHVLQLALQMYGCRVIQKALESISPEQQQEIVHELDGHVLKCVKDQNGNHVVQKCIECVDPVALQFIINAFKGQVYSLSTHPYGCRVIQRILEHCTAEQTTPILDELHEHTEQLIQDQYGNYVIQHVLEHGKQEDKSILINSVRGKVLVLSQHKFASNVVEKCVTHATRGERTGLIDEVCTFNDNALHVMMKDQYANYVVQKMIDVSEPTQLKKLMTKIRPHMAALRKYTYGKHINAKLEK

B1: Nos ZC (aa289-401) with C-terminal V5 epitope, EMSA construct (domain or fragment)
chain: RGASNSSNNNNNNNKVYKRYNSKAKEISRHCVFCENNNEPEAVINSHSVRDNFNRVLCPKLRTYVCPICGASGDSAHTIKYCPKKPIITMEDAIKAESFRLAKSSYYKQQMKV
modifications: two Zn2+ bound by the CCHC zinc fingers; C-terminal V5 epitope omitted
With B1 the Kd [1] was 4.6 nM.

For AAAUUGUACAUAAGCC (ssRNA) [hb NRE2 RNA 16-nt], the Kd [2] was 8.7 nM and the “fold weaker RNA-binding affinity (Kd ratio)” value (Pum PUM-HD WT (EMSA) [3]) was 3 fold weaker than with Nos ZC.

UAUUUGUAAUUUAUAUC (ssRNA) [CycB NRE RNA (EMSA)] was tested, and the binding result (Pum PUM-HD WT (EMSA) [4]) was “no binding” and the Kd [5] was 12 nM.

With AAAUUGGACAUAAGCC (ssRNA) [hb NRE2 +3G RNA] the binding result (Pum PUM-HD WT (EMSA) [6]) was “no binding” and the Kd [5] was 59.9 nM.

GAAUUGUAUAUAUUCG (ssRNA) [hb NRE1 RNA]: no binding (Pum PUM-HD WT (EMSA) [7]); binds [8].

UGAUUGUAGAUAUCUA (ssRNA) [bcd NRE RNA]: no binding (Pum PUM-HD WT (EMSA) [7]); binds [8].

AAAUACAACAUAAGCC (ssRNA) [hb NRE2 ACA RNA]: no binding (Pum PUM-HD WT (EMSA) [9]); no binding [10].

UAUUUGUAAUUUAU (ssRNA) [CycB NRE RNA 14-nt (crystal)]: binds [11].

UGUACAUA (ssRNA) [hb PRE2 RNA 8-nt]: binds [12].
